Measurements: US20120045395

Target: SMAD3 (endogenous, A549 cells) (Homo sapiens) (UniProt P84022)
Assay: cell_activity
Settings: luciferase activity after TGF-beta in A549; indirect

SMAD3 (endogenous, A549 cells) (Homo sapiens), sequence (P84022 2-425): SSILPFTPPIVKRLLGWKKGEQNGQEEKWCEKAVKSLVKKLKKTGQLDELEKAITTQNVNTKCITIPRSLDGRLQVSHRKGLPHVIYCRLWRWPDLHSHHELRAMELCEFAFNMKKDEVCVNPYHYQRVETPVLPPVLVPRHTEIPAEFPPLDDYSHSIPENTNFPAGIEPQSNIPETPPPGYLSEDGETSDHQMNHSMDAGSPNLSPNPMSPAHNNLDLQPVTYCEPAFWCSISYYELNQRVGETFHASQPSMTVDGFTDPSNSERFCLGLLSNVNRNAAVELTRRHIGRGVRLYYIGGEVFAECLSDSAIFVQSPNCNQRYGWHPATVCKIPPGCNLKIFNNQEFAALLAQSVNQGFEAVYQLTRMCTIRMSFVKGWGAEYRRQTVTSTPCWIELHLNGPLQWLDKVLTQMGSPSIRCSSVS

## let-7d promoter -1600 to +87 luciferase reporter (p-let-7d-luc)
  activity (% of untreated reporter activity): < 30
